In US20220186239A1 (NINGBO UNIVERSITY, published 2022):

Molecular target: T1, AD-T (UniProt P03070 87-708)
T1 construct: Commercial Y2H control prey; also called control prey
Assay: yeast two-hybrid in Y2H Gold; growth on QDO and colour on QDO/X/A

B1: BD-Lam (other)
chain: MKLLSSIEQACDICRLKKLKCSKEKPKCAKCLKNNWECRYSPKTKRSPLTRAHLTEVESRLERLEQLFLLIFPREDLDMILKMDSLQDIKALLTGLFVQDNVNKDAVTDRLASVETDMPLTLRQHRISATSSSEESSNKGQRQLTVSSEEVVSREVSGIKAAYEAELGDARKTLDSVAKERARLQLELSKVREEFKELKARNTKKEGDLIAAQARLKDLEALLNSKEAALSTALSEKRTLEGELHDLRGQVAKLEAALGEAKKQLQDEMLRRVDAENRLQTMKEELDFQKNIYSEELRETKRRHETRLVEID
notes: Commercial Y2H negative control bait; also called negative control bait
- binding result: no binding
